Test system: MCP-TGIRT (GsI-IIC RT) fusion
Test: cell_activity
Conditions: control used for normalization, HEK293T

nanoluciferase mRNA with MS2 loops hybridized to DNA primer
activity (relative to TGIRT): 1

— patent US20240360477
